In patent US20070172423A1, “Composition and method for modulating vasculogenesis for angiogenesis” (priority 1998, published 2007):

Columns and labels:
aortic rings = assay: Aortic ring assay; format: cell-based
Experimental: Cell migration assays were performed on growth arrested confluent HMVEC, BAEC or hSMC cells. Cell monolayers were wounded with a rubber policeman and washed with serum-free medium. Dishes were then incubated for 20 hours in serum-free medium containing VEGF165, PDGF-AA, (R&D Systems, Minneapolis USA) or PDGF-CC. Each assay included two dishes per condition and was repeated three times independently. Cells were photographed at 40× magnification, and migration percentage corresponding to the ratio between area of the cells and the total area of the wound (Biocom visiol@b 2000 version 4.52, San Diego). For HMVEC proliferation assay, cells were seeded in 96-well plates (5 wells per condition), and incubated with VEGF, PDGF-AA, or PDGF-CC (50 ng/ml) after serum starvation. After 7 days, viable cells were counted using the cell Titer-glo luminescent cell viability assay. For NIH-3T3 and hSMC proliferation assay, cells cultured in 96-well plates were serum-starved overnight, followed by treatment with growth factors at different concentrations. Two days later, cell numbers were counted and proliferation percentage calculated, using cells cultured in medium containing 10% serum as control. Aortic ring assay was performed as described 51. Briefly, one-millimeter long aortic rings were embedded in gels of rat tail interstitial collagen and cultured at 37° C., supplemented with different growth factors (50 ng/ml). Aortic rings were analysed at day 9 of culturing. Experiments included three explants per condition and were repeated at least twice. Aortic rings were photographed at 25× magnification.
Although PDGFR-α is expressed on endothelial cells (Edelberg et al., Journal of Clinical Investigation, 1998 102:837-43; Smits et al., Growth Factors, 1989 2:1-8; Bar et al., Endocrinology, 1989 124:1841-8; Beitz et al., Proc Natl Acad Sci USA, 1991 88:2021-5; Marx et al., J Clin Invest, 1994 93:131-9; Shinbrot et al., Dev. Dyn., 1994 199:169-175), little is known about the functional consequence of PDGFR-α signaling in these cells. […] We also tested the effect of PDGF-CC on cultured aortic rings, as this assay allows assessment of the outgrowth of microvessels from an intact vessel in vitro (Blacher et al., Angiogenesis, 2001 4:133-42). Results are graphically represented as the number of microvessels and the distance over which they grew out from the aortic ring. Each experiment included three explants per condition and was repeated at least twice. At day 9 after culturing, microvessels and the distance of their outgrowth were quantified and evaluated using Student's t test. In baseline conditions, only a small number of microvessels sprouted from the aortic rings—most of them over very short distances (0.25 mm from the aortic ring)—and only a small fraction (<5%) growing out over longer distances (>0.5 mm from the aortic ring, FIG. 41a). VEGF increased not only the number of sprouting microvessels (P<0.001 at all concentrations versus control), but also the distance over which they grew out (P<0.05 at all concentrations versus control; FIG. 41b,f). At 30 ng/ml, PDGF-CC increased the number of microvessels (P<0.001 versus control, FIG. 41e,g) and increased the distance of vessel outgrowth at 5 ng/ml (P<0.01 versus control, FIG. 41g). […] A similar bell-shaped dose-response relationship has been documented for other members of the VEGF/PDGF-superfamily (Jin et al., J Mol Neurosci, 2000 14:197-203). […]

human VEGFR-2 = molecular target: T1, human VEGFR-2 (Homo sapiens, UniProt P35968); assay: Binding to soluble VEGFR-2-Ig fusion protein; conditions: 35S-labeled protein in conditioned medium from 293 cells, precipitation with Ig-fusion protein
T1 construct: soluble Ig-fusion proteins containing the extracellular domains of human VEGFR-1, VEGFR-2 and VEGFR-3; made in house; host or cells: human 293 EBNA cells, transient expression
Experimental: To assess the interactions between full length and truncated PDGF-C and the VEGF receptors, full length and truncated PDGF-C were tested for their capacity to bind to soluble Ig-fusion proteins containing the extracellular domains of human VEGFR-1, VEGFR-2 and VEGFR-3 (Olofsson et al., Proc. Natl. Acad. Sci. USA, 1998 95:11709-11714). The fusion proteins, designated VEGFR-1-Ig, VEGFR-2-Ig and VEGFR-3-Ig, were transiently expressed in human 293 EBNA cells. All Ig fusion proteins were human VEGFRs. Cells were incubated for 24 hours after transfection, washed with Dulbecco's Modified Eagle Medium (DMEM) containing 0.2% bovine serum albumin and starved for 24 hours. The fusion proteins were then precipitated from the clarified conditioned medium using protein A-Sepharose beads (Pharmacia). The beads were combined with 100 microliters of 10× binding buffer (5% bovine serum albumin, 0.2% Tween 20 and 10 µg/ml heparin) and 900 microliter of conditioned medium from 293 cells that had been transfected with mammalian expression plasmids encoding full length or truncated PDGF-C or control vector, then metabolically labeled with ^35S-cysteine and methionine (Promix, Amersham) for 4 to 6 hours. […] Labeled proteins that were bound to the Ig-fusion proteins were analyzed by SDS-PAGE under reducing conditions. Radiolabeled proteins were detected using a phosphorimager analyzer.

T1 sequence (P35968 20-764 limits assumed): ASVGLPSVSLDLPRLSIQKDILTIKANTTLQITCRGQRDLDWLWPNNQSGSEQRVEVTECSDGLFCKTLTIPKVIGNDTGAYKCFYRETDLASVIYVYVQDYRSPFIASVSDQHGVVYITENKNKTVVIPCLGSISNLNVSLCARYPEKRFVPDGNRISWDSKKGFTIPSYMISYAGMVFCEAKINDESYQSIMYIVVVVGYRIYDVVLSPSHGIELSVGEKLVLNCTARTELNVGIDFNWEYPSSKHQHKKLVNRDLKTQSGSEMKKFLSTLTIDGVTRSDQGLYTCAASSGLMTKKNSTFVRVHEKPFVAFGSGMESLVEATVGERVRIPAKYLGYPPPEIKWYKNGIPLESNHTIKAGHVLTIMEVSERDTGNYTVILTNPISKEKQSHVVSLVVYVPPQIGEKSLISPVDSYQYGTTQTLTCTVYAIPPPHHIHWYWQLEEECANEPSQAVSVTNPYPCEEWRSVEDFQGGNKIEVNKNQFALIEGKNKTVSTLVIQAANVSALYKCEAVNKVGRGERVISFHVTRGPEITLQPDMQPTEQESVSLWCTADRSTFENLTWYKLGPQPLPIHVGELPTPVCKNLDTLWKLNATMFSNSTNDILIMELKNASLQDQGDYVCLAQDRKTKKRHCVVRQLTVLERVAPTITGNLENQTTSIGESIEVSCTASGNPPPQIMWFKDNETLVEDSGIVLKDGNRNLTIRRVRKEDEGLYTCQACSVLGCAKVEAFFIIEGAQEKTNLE

B1: PDGF-CC: recombinant human PDGF-CC core domain homodimer, residues 230-345 of full-length PDGF-C (SEQ ID NO:40), produced in baculovirus infected insect cells (protein)
chain: GRKSRVVDLNLLTEEVRLYSCTPRNFSVSIREELKRTDTIFWPGCLLVKRCGGNCACCLHNCNECQCVPSKVTKKYHEVLQLRPKTGVRGLHKSLTDVALEHHEECDCVCRGSTGG
modifications: homodimer; PDGF-C core domain
Question: What does the source list for B1?
Answer: distance of vessel outgrowth (aortic rings; 5 ng/ml, day 9, versus control): increased; number of microvessels (aortic rings; 30 ng/ml, day 9, versus control): increased; concentration of maximal stimulation of perivascular fibroblast-like cells (aortic rings; FIG. 41 legend): 5 to 10 ng/mL; concentration of maximum effect on microvessel sprouting (aortic rings; bell-shaped dose-response, less potent at 50 ng/ml): 30 ng/mL; number and emigration of perivascular fibroblast-like cells (aortic rings; day 9, versus control): significantly increased; interaction with VEGFR-2-Ig (human VEGFR-2): failed to show any interaction
